T1: BdSWN5 (Brachypodium distachyon, UniProt I2E2W5 1-346)
T1 sequence: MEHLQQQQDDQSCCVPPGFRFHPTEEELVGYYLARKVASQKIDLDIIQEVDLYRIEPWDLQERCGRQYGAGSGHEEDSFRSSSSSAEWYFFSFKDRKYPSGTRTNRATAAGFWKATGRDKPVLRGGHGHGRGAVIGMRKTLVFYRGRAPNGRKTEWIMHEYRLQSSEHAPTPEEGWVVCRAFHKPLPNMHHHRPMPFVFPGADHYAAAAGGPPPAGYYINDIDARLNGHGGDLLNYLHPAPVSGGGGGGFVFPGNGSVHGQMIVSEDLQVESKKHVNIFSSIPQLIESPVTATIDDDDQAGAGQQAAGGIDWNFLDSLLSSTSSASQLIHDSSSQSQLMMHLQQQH

B1: SNBE1 M1 motif (dsDNA)
DNA 1: AGCATACATTTATAGGAAGCGTATTCTCGCAGTCA
DNA 2: TGACTGCGAGAATACGCTTCCTATAAATGTATGCT
B2: SNBE2 M2 motif (dsDNA)
DNA 1: TTTTACATTGCATATGCTTTGTATCAATTGCCCAA
DNA 2: TTGGGCAATTGATACAAAGCATATGCAATGTAAAA

Target: T1, BdSWN5
Experiment: competition

Row | Binder | binding result
1 | B1 | no binding
2 | B2 | no binding
